Reference: patent US20250326867A1, “De novo designed chlorophyll special pair proteins” (University of Washington, priority 2024, published 2025)
Changes are numbered by the printed parent chain.

B1: SP1: de novo designed chlorophyll special pair protein, C2 homodimer (protein)
chain: GGDSRELIARYQILLAELAAIRADIAAERTGDPYVRKLARELKRLAQEAAEEVKRDPSSSDVNMALLLILLMIELAVRALEAAERTGDPEVRELAAELVWLAVEAAEEVQRNPSSSDVWLALHLIMLAIWAAVAALEAAERTGDPEVRELARELVRLAVEAAEEVQRNPSSKEVYMALLLILIAILEAVLSLLRAERSGDPEKREKARERVREAVERAEEVQR
modifications: homodimer; VARIANT 1..2 optionally absent
notes: de novo designed chlorophyll special pair protein, C2 homodimer
B2: D_3_114_5 (designed binder)
chain: SGSGSSDFEFKMLATWAKMAITAAERAAGTDPELQEMVALIKKELEQAERTFRNGDKSEAMRQLEFVLTAANAVLAVALAANMAGTDPELQEMVDRILKQLKEAIRTFQNGDQEEAEDQLLFVLAAATAVAVVAWAKILAGTDPELQEMVKQILEELKQAIETWARGDKEKAATQLLFVMWAAHAVAAIALAANVAGTDPRLQQQVKEILEKLKEAIETFQKGDEEQAFRQLAEVLAEAMLVAIRALLTN
notes: Designed homodimer subunit, after TEV cleavage
B3: D_3_114_2 (designed binder)
chain: SGSGSSDEEFKWLATWAKMAITAAERAAGTDPELQEMVALIKKELEQAERTFRNGDKSEAWRQLVFVAIAAAAVLAVALAANAAGTDPELQEMVDRILKQLKEAIRTFQNGDQEEAETQLFFVLLAAAAVAVVALALIWAGTDPELQEMVKQILEELKQAIETFARGDKEKALTQLLFVLWAAHAVLWIAIAANTAGTDPRLQQQVKEILEKLKEAIETFQKGDEEQAFRQLAEVLAEAVLVALRAMKTN
notes: as for B2
B4: JId (designed binder)
chain: SGSSEELARESAEAAWRLAQAATRLVLAVIRGDLKEIAEALIELARAVQELARVAKEYGNDELAKTAAFLAAHVALLAIIVLIRAIKEGDDEVRELAKTAIKLASTAAKIVLDALPTAEEVRQITLLAKLAEEAADKKNEDSALAVGIAAAAVLLALLALEAAQKAGIEEAEKGARLLLKLAMDAARKKNPEEALAVLNAALDVSIALRLLQSAKRAGSEETRKLAEEMLRQALERARK
notes: as for B2
B5: JIe (designed binder)
chain: B4 chain with L25I, V26M, A151M, L155I, L198F
notes: as for B2
B6: JA (designed binder)
chain: SGSGSWEEEAADKAIEIAEKVFRLKKSGTSEDEIAEEVAREISEVIRTLKESGSSEEVIALALLMIILGVVMALIANGVSIREQLDISATILYEVAREQGNEEALEAIEEITRLAEEIKEEGGSILAAHILTMAGLLVAALPSEEAAEVAKEIAKAVKAAVEAEKDGKSDEAMLALIRLILAIMAALFNRSKYSLEMVRRIAKEAEQLAEDAREGK
notes: as for B2
B7: JB (designed binder)
chain: SGSTEELKKVLEDVRELAERAKESTDPEEALIIAILVIIRALAAVALDPSEEASTAVKIAIKIAEEVAKRVSDSELSASIALLIANLALVAAKAAGDEELSKLALRLAKLAAELAKDALRIAEERGNAWQAAIAVGVVVMVATILLALAKQLGSEEALKEALEVAEEAARLAKRQLELAERVGDPIVALAAVGHVFMVAMLLAQIARESGSEEAKERAKRVAEEAEELAERVYELMRREGK
notes: as for B2
B8: D_3_114_3 (designed binder)
chain: SGSGSSDELFKWLATEAKMAITAAERLAGTDPELQEMVALIKKELEQAERTFRNGDKSEAMRQLLFVLMAANAVAAVAAAANMAGTDPELQEMVDRILKQLKEAIRTFQNGDQEEAMTQLAFVLLAAAAVFVVAWALILAGTDPELQEMVKQILEELKQAIETFARGDKEKALTQLLFVLWAAHAVAWIALAALLAGTDPRLLQQVKEILEKLKEAIETFQKGDEEQAFRQLAEVLAEAILVAIRAAKTN
notes: as for B2
B9: D_3_114_4 (designed binder)
chain: SGSGSSDEEFKFLATMAKMAITAAERAAGTDPELQEMVALIKKELEQAERTFRNGDKSEAQRQLWFVWVAALAVAAVALAANAAGTDPELQEMVDRILKQLKEAIRTFQNGDQEEAETQLRFVLMAAAAVAVVALARLWAGTDPELQEMVKQILEELKQAIETFARGDKEKALTQLLFVLWAAHAVLWIAIAANLAGTDPRLQQQVKEILEKLKEAIETFQKGDEEQAFRQLAEVLAEAVLVALRARKTN
notes: as for B2
B10: JD (designed binder)
chain: SGSSDEEYARMSAELAEEAAKEALEQAKREGDEDARRVAEELEKQAEEARRKKDFDLANLVLMAAIILLLALIILELAKKAGNEQMEASGLSLLATAALLAAAGGENSEDARKALEAALRLAERATEVLEKIAKKGETALEKAIAAGTLVMLIQIIIQIAELLSKLGDTEEAKKVLDIAIELIKRVTEILERIAKKADTDILAQAAAGHLIYLIQLLMQISILLRRLGNIDEAFKVLEEARELAERVRELLERIAKNSDK
notes: as for B2
B11: JC (designed binder)
chain: SGSTEKLKKVLERVRELAERAKESTSPEEALIIALLVSSLAIAAVMLDPSEEASTAVKIAIKIAEEVAKRVSDSQLSASIALSIASLALVAAEAAGDEELSKLALRLAKLAAELAKDALRIAEERGNAIDAAIAVGIVVMVAAILLQLAKLLGSEEALKEALEVAEEAARLAKRVLELAERVGDPQVALAAVGHVQMVAILLAQIARESGSEEAKERAERVARESMELAERVLELMRREGKW
notes: as for B2
B12: JE (designed binder)
chain: SGSGSSDELAALFLIISAKSQAWQAQSAAERTGDPRVRELARELKRLAQEAAEEVKRDPSSSEVNKNLQLISMAIALAVLALQLARKAGDEEARDIAREAVEVAVRAAQLILEGRDEQRAQTLFLIAHALLMAVMAARLGNSEVAELAVKVLRLAKELEKLLPSEIALFVVLMIALAALSAAMAASGGQEDYARDALRRLEEAIREAEENRSKESLEKVIEEAIEAMLQANRAQTGG
notes: as for B2

Target: not listed separately
Test: ZnPPaM binding titration monitored by UV/vis absorbance
Details: absorption titration, P+L→PL; 150 mM NaCl, 10 mM Tris pH 8; read-out: dissociation constant KD1
Method: FIG. 9. SP2-ZnPPaM binding titration monitored by UV/vis absorbance. (a) UV/vis titration of ZnPPaM into a solution of 20 μM SP2 dimer ([…] of SP2 monomer) in 150 mM NaCl, and 10 mM Tris at pH 8. Samples were prepared separately with 0.25 to 4 equivalents (eq.) of ZnPPaM per SP2 protein dimer (2.0 eq. ZnPPaM would be a stoichiometric amount). The y-axis is the molar extinction coefficient, &, or OD divided by ZnPPaM concentration. ZnPPaM was added to protein samples from a DMSO stock solution. Samples were incubated overnight for 20 hours at 4° C. before measurement at room temperature. (b) The same data as in panel (a) zoomed in on the Qy region. Arrows indicate the direction & changes as a function of increasing ZnPPaM concentration. (c) Fitted spectra and (d) species concentration vs. molar ratio of ligand to protein from fitting of the absorbance spectra in panels (a) and (b). During fitting, only the P+L→PL and PL+L→PL2 reactions were considered, and ZnPPaM aggregation was disregarded. (P represents SP2 dimer protein and L represents ZnPPaM ligand). Curve fitting gives dissociation constants (KDs) of 110 nM and 2.0 μM for KD1 and KD2, respectively. Fittings were performed with an algorithm that combines singular value decomposition and least squares regression, as implemented in ReactLab™ Equilibria. (e) Full spectra and (f) the Qy region of a second titration with SP2 dimer protein concentration held at 2.0 μM. At 2.0 μM protein, the intensities of the spectral features at 669 and 692 nm depend upon the molar ratio of protein to ZnPPaM in a manner similar to the 20 μM protein titration shown in panels (a) and (b).
(§1) At longer wavelengths in the UV/visible/near-infrared (UV/vis/NIR), CD spectra can serve as a convenient probe of excitonic interactions between Chls. […] When Chl dimers are arranged in chiral protein environments, however, excitonic interactions can produce delocalized transitions with chiral character, yielding CD signals that are stronger and conservative (i.e., composed of a bisignate doublet that integrates to zero). […] Curve fitting of the CD titrations yields SP2-ZnPPaM dissociation constants (KDs) of 300 nM for KD1 and 2.5 μM for KD2, and SP3-ZnPPaM KDs of 800 nM for KD1 and 1.0 μM for KD2 (data not shown). Due to the lower CD signal of the SP1-ZnPPaM complex, we instead used absorbance and fluorescence to measure the SP1-ZnPPaM interaction. Absorption titrations yielded curve fits with KD1 and KD2 values of 290 nM and 430 nM for SP1, 110 nM and 2.0 μM for SP2, and 350 nM and 940 nM for SP3, respectively (FIG. 9).
Protein-chlorophyll sample preparation: Zn pheophorbide a methyl ester (ZnPPaM) was purchased from Frontier Scientific, Inc. ZnPPaM stock solutions were prepared in dimethyl sulfoxide (DMSO) or methanol to concentrations between 200 μM and 1 mM. ZnPPaM concentrations were determined using mass measurements and by using the known absorptivity of Zn pheophytin a, which has a similar absorbance spectrum and an extinction coefficient €659 nm of 77,300 M^−1 cm^−1 in 80% acetone/20% deionized water (Jones et al. 1976). Ultraviolet/visible (UV/vis) absorbance spectra were collected using a V-750 spectrophotometer with a 1 nm bandwidth and 400 nm/min scanning speed. Protein-ZnPPaM complexes were prepared by slowly adding freshly-prepared ZnPPaM stock solution to protein solution in aqueous buffer at room temperature and incubating samples for several hours. Unbound ZnPPaM was removed by centrifugation to pellet precipitated ZnPPaM, sterile filtration using a 0.22 μm syringe filter, and/or running a PD-10 desalting column purification (Sephadex™ G-25 M resin, Cytiva Life Sciences).
Work on B1 yielded a Kd of 290 nM.

Same assay, conditions: absorption titration, PL+L→PL2; read-out: dissociation constant KD2
For B1, the Kd was 430 nM.

Target: not listed separately
Test: ZnPPaM fluorescence titration, 1:1 binding model
Details: 1:1 binding model of protein monomer to ZnPPaM, approximates average of KD1 and KD2, read-out: KD estimate
Description: as §1
Molecule B1 has a Kd of 660 nM.

Target: the molecule itself
Test: size-exclusion chromatography, self-association (homodimer)
Details: not given
Method: FIG. 7. Size exclusion chromatography (SEC) traces of purified SP apo-proteins. Proteins were injected as 0.5 mL aliquots onto a Superdex™ 200 Increase 10/300 GL column (Cytiva Life Sciences). The narrow, isolated peaks indicate that the samples contain monodisperse protein. Running buffer was 150 mM NaCl, 10 mM Tris at pH 8. Proteins were purified by Ni-NTA and one round of SEC prior to collecting the data shown.
Proteins were purified by Ni-NTA and size-exclusion chromatography (SEC) (FIG. 7). […] A slightly lower predicted radius of gyration (Rg) value compared to experimental SAXS data is likely due to a dense hydration shell around the highly charged SP proteins (Svergun et al. 1998; Kim et al. 2016). The far ultraviolet (UV) circular dichroism (CD) spectra of three SP proteins that expressed in high yield (≥140 mg/L) show the proteins are highly α-helical with and without the synthetic Chl a derivative, Zn pheophorbide a methyl ester (ZnPPaM). Thermal denaturation curves monitored by the CD signal at 222 nm indicate that all three proteins are highly thermostable in the apo- and holo-states (FIG. 2).
B2: binds.
B3: binds.
B4: binds.
B5: binds.
B6: binds.
B7: binds.
B8: binds.
B9: binds.
B10: binds.
B11: binds.
B12: binds.
